{
  "source": "paper PMC1851628",
  "about": "(Nucleic Acids Research, 2007)",
  "proteins": {"B1": {"name": "RepB initiator protein of plasmid pMV158 (natural protein, UniProt P13921 1-210, looked up)", "chain": "MAKEKARYFTFLLYPESIPSDWELKLETLGVPMAISPLHDKDKSSIKGQKYKKAHYHVLYIAKNPVTADSVRKKIKLLLGEKSLAMVQVVLNVENMYLYLTHESKDAIAKKKHVYDKADIKLINNFDIDRYVTLDVEEKTELFNVVVSLIRAYTLQNIFDLYDFIDENGETYGLTINLVNEVIAGKTGFMKLLFDGAYQRSKRGTKNEER"}},
  "target": "the molecule itself",
  "assay": "AUC",
  "data": [
    {"protein": "B1", "values": [
      {"measurement": "stoichiometry N", "value": 6}
    ]}
  ]
}
